Target: FGFR1c and βKlotho receptor complex on membrane vesicles of CHO cells overexpressing both (human) (UniProt Q86Z14)
Assay: cryo-EM and cryo-ET of a gold-nanoparticle-labelled ligand on membrane vesicles; membrane preparations (~5 mg/ml) incubated with AuE38C-FGF21 (0.03 mg/ml) on ice for 30 min, washed with 1X PBS three times, plunge-frozen; AuNPs and AuNP pairs counted in tomograms

Sequence of UniProt Q86Z14 (Q86Z14 whole entry, chain 1 of 2): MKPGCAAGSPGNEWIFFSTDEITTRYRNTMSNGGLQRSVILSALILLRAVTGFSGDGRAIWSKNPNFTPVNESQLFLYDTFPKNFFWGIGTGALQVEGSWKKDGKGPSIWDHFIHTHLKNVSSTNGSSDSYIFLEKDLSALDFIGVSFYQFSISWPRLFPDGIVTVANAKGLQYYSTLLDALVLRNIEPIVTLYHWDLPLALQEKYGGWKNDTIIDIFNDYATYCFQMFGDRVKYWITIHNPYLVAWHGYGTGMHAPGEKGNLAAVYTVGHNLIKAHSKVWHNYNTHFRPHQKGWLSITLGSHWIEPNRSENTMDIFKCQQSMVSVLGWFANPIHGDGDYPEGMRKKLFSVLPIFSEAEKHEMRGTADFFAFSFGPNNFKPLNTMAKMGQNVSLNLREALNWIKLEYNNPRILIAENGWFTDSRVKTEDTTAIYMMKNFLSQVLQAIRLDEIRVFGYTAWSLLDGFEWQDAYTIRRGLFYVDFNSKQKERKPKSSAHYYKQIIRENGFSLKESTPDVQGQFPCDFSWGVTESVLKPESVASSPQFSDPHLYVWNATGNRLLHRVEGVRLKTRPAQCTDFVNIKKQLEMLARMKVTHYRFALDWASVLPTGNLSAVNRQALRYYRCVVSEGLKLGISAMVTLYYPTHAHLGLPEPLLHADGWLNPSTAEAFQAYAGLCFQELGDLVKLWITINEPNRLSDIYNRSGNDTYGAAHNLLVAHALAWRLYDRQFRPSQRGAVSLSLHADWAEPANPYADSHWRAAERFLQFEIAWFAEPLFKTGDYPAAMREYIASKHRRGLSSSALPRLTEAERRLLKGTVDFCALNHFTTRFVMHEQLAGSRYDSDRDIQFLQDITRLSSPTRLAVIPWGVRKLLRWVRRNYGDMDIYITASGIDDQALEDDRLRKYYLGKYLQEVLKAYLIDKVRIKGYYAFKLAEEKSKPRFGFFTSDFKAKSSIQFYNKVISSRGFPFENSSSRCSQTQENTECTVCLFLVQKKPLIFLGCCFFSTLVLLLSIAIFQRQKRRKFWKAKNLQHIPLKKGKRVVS
Sequence of UniProt Q86Z14 (P11362 22-822, chain 2 of 2, further chain): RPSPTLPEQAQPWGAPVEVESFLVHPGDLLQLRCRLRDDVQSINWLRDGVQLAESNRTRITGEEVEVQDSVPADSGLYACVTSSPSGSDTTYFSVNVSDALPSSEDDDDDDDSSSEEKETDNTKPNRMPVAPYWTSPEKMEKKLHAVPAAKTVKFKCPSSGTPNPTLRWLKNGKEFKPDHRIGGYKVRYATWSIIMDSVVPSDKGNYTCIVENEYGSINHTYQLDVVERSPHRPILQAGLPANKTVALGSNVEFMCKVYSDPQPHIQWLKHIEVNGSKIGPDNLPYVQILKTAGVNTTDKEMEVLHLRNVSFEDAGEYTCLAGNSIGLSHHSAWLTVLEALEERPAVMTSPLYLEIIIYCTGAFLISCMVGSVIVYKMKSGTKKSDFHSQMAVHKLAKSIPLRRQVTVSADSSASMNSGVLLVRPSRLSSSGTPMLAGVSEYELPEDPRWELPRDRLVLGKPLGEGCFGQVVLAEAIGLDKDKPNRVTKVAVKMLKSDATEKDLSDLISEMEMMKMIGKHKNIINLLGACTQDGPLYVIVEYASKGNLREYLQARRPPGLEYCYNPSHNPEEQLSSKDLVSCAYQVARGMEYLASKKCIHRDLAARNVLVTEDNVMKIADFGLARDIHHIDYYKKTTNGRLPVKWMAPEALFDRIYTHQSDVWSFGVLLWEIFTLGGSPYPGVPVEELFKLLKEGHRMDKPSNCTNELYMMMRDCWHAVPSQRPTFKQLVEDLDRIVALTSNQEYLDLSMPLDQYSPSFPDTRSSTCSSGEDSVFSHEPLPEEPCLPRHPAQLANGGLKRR

percent of AuNPs in true pairs: 85%
stoichiometry N (copies of FGF21 in the receptor complex): 2
Substance: AuNP-FGF21 (E38C-FGF21 conjugated with a 144-gold atom nanoparticle) (ligand)

Source: publication PMC6349402
